Results taken from the Immune Epitope Database (IEDB).

How the values were obtained:
[1] = biological target: HLA-A*69:01; assay: IEDB peptide-MHC binding, purified MHC/direct/fluorescence; filed as Kd, often an IC50 or EC50 that approximates it; ≥ and ≤ were set here for values at or beyond the usual limits of such assays
[2] = biological target: HLA-A*03:01; assay: as above
[3] = biological target: HLA-B*15:09; assay: as above; conditions: source organism: West Nile virus
[4] = biological target: HLA-B*18:01; assay: as above; conditions: source organism: West Nile virus
[5] = biological target: HLA-A*11:01; assay: as above
[6] = biological target: HLA-B*39:01; assay: as above; conditions: source organism: West Nile virus
[7] = biological target: HLA-B*15:01; assay: as above
[8] = biological target: HLA-B*27:05; assay: as above
[9] = biological target: HLA-B*40:01; assay: as above
[10] = biological target: HLA-B*44:02; assay: as above
[11] = biological target: HLA-B*07:02; assay: as above
[12] = biological target: HLA-A*01:01; assay: as above
[13] = biological target: HLA-B*46:01; assay: as above; conditions: source organism: West Nile virus
[14] = biological target: HLA-A*31:01; assay: as above
[15] = biological target: HLA-B*48:01; assay: as above; conditions: source organism: West Nile virus
[16] = biological target: HLA-B*58:01; assay: as above
[17] = biological target: HLA-A*02:01; assay: as above
[18] = biological target: HLA-A*29:02; assay: as above; conditions: source organism: West Nile virus
[19] = biological target: HLA-B*57:01; assay: as above
[20] = biological target: HLA-A*31:01; assay: IEDB peptide-MHC binding, purified MHC/competitive/fluorescence; filed as Kd, often an IC50 or EC50 that approximates it; ≥ and ≤ were set here for values at or beyond the usual limits of such assays
[21] = biological target: HLA-B*35:01; assay: IEDB peptide-MHC binding, purified MHC/direct/fluorescence; filed as Kd, often an IC50 or EC50 that approximates it; ≥ and ≤ were set here for values at or beyond the usual limits of such assays
[22] = biological target: HLA-B*08:01; assay: as above
[23] = biological target: HLA-A*26:01; assay: as above
[24] = biological target: HLA-B*15:17; assay: as above; conditions: source organism: Giardia lamblia ATCC 50803
[25] = biological target: HLA-A*29:02; assay: IEDB peptide-MHC binding, purified MHC/competitive/fluorescence; filed as Kd, often an IC50 or EC50 that approximates it; ≥ and ≤ were set here for values at or beyond the usual limits of such assays; conditions: source organism: Cryptosporidium parvum Iowa II
[26] = biological target: HLA-A*03:01; assay: as above
[27] = biological target: HLA-B*27:03; assay: as above; conditions: source organism: Giardia lamblia ATCC 50803
[28] = biological target: HLA-B*18:01; assay: as above; conditions: source organism: Giardia lamblia ATCC 50803
[29] = biological target: HLA-B*15:17; assay: as above; conditions: source organism: Giardia lamblia ATCC 50803
[30] = biological target: HLA-B*15:01; assay: as above; conditions: source organism: Giardia lamblia ATCC 50803
[31] = biological target: HLA-B*51:01; assay: as above; conditions: source organism: Giardia lamblia ATCC 50803
[32] = biological target: HLA-B*46:01; assay: as above; conditions: source organism: Giardia lamblia ATCC 50803
[33] = biological target: HLA-A*26:01; assay: as above; conditions: source organism: Giardia lamblia ATCC 50803
[34] = biological target: HLA-B*57:01; assay: as above; conditions: source organism: Giardia lamblia ATCC 50803
[35] = biological target: HLA-A*24:03; assay: IEDB peptide-MHC binding, purified MHC/direct/fluorescence; filed as Kd, often an IC50 or EC50 that approximates it; ≥ and ≤ were set here for values at or beyond the usual limits of such assays; conditions: source organism: Pasteurella multocida
[36] = biological target: HLA-C*12:03; assay: as above
[37] = source organism: West Nile virus
[38] = source organism: Francisella tularensis subsp. holarctica LVS
[39] = source organism: Vibrio cholerae
[40] = source organism: Vibrio parahaemolyticus
[41] = source organism: Mycobacterium tuberculosis
[42] = source organism: Giardia lamblia ATCC 50803
[43] = source organism: Listeria monocytogenes
[44] = source organism: Camelpox virus M-96
[45] = source organism: Influenza A virus (A/nt/60/1968(H3N2))
[46] = source organism: Campylobacter jejuni
[47] = source organism: Pasteurella multocida

AHYEEDVNL
Kd [1, 37]: ≥ 20 µM | Kd [2, 37]: ≥ 20 µM | Kd [3]: 1.8 µM | Kd [4]: ≥ 20 µM | Kd [5, 37]: ≥ 20 µM | Kd [6]: 1.71 µM | Kd [7, 37]: ≥ 20 µM | Kd [8, 37]: ≥ 20 µM | Kd [9, 37]: ≥ 20 µM | Kd [10, 37]: ≥ 20 µM | Kd [11, 37]: ≥ 20 µM | Kd [12, 37]: ≥ 20 µM | Kd [13]: ≥ 20 µM | Kd [14, 37]: ≥ 20 µM | Kd [15]: ≥ 20 µM | Kd [16, 37]: ≥ 20 µM | Kd [17, 37]: ≥ 20 µM | Kd [18]: ≥ 20 µM | Kd [19, 37]: ≥ 20 µM

AIYESNIGY
Kd ([20]; source organism: Francisella tularensis subsp. tularensis FSC198): ≥ 20 µM | Kd [2, 38]: 0.0083 µM | Kd [5, 38]: 0.0151 µM

EGIEGRIAY
Kd [21, 39]: 0.0159 µM | Kd [1, 39]: ≥ 20 µM | Kd [2, 39]: ≥ 20 µM | Kd [5, 39]: ≥ 20 µM | Kd [7, 39]: 0.306 µM | Kd [8, 39]: ≥ 20 µM | Kd [9, 39]: ≥ 20 µM | Kd [10, 39]: ≥ 20 µM | Kd [11, 39]: ≥ 20 µM | Kd [22, 39]: ≥ 20 µM | Kd [12, 39]: ≥ 20 µM | Kd [14, 39]: ≥ 20 µM | Kd [16, 39]: ≥ 20 µM | Kd [17, 39]: ≥ 20 µM | Kd [23, 39]: 0.00861 µM

EVDEGSDMM
Kd [21, 40]: 0.254 µM | Kd [1, 40]: 0.141 µM | Kd [2, 40]: ≥ 20 µM | Kd [5, 40]: ≥ 20 µM | Kd [7, 40]: ≥ 20 µM | Kd [8, 40]: ≥ 20 µM | Kd [9, 40]: ≥ 20 µM | Kd [10, 40]: ≥ 20 µM | Kd [11, 40]: ≥ 20 µM | Kd [22, 40]: ≥ 20 µM | Kd [12, 40]: 4.3 µM | Kd [14, 40]: ≥ 20 µM | Kd [16, 40]: ≥ 20 µM | Kd [17, 40]: ≥ 20 µM | Kd [23, 40]: 4.43 µM

GTAPPPLTR
Kd ([20]; source organism: Mycobacterium tuberculosis variant bovis BCG str. Pasteur 1173P2): 0.00377 µM | Kd [2, 41]: 0.32 µM | Kd [5, 41]: 0.0204 µM

HSSVAGGLW
Kd [21, 42]: 0.278 µM | Kd [1, 42]: ≥ 20 µM | Kd [2, 42]: ≥ 20 µM | Kd [5, 42]: ≥ 20 µM | Kd [24]: 0.0011 µM | Kd [7, 42]: ≥ 20 µM | Kd [8, 42]: ≥ 20 µM | Kd [9, 42]: ≥ 20 µM | Kd [10, 42]: ≥ 20 µM | Kd [11, 42]: ≥ 20 µM | Kd [22, 42]: ≥ 20 µM | Kd [12, 42]: 0.59 µM | Kd [14, 42]: ≥ 20 µM | Kd [16, 42]: 0.00374 µM | Kd [17, 42]: ≥ 20 µM | Kd [23, 42]: ≥ 20 µM | Kd [19, 42]: 0.0535 µM

LLARFGLEK
Kd ([20]; source organism: Listeria monocytogenes J0161): 1.4 µM | Kd [2, 43]: 0.0141 µM | Kd [5, 43]: 0.0103 µM

MMGIILSKY
Kd [25]: 0.052 µM

MVGVGSLVK
Kd [20, 37]: ≥ 20 µM | Kd [5, 37]: 0.027 µM

SQEDNHFSL
Kd ([21]; source organism: Variola virus): 1.56 µM | Kd [1, 44]: ≥ 20 µM | Kd [2, 44]: ≥ 20 µM | Kd [5, 44]: ≥ 20 µM | Kd ([7]; source organism: Variola virus): 2.79 µM | Kd [8, 44]: ≥ 20 µM | Kd ([9]; source organism: Variola virus): 0.141 µM | Kd [10, 44]: ≥ 20 µM | Kd [11, 44]: ≥ 20 µM | Kd [22, 44]: ≥ 20 µM | Kd [12, 44]: ≥ 20 µM | Kd [14, 44]: ≥ 20 µM | Kd [16, 44]: ≥ 20 µM | Kd [17, 44]: ≥ 20 µM | Kd [23, 44]: ≥ 20 µM

TIHDRIPHR
Kd [26, 45]: 0.0619 µM | Kd [20, 45]: 0.0204 µM

TLYYLECKR
Kd [20, 46]: 0.0545 µM | Kd [2, 46]: ≥ 20 µM

TMNSRYYLV
Kd [27]: ≥ 20 µM | Kd [26, 42]: ≥ 20 µM | Kd [28]: ≥ 20 µM | Kd [29]: ≥ 20 µM | Kd [30]: ≥ 20 µM | Kd [31]: ≥ 20 µM | Kd [32]: ≥ 20 µM | Kd [20, 42]: 0.0725 µM | Kd [33]: ≥ 20 µM | Kd [34]: ≥ 20 µM

TVHDRTPYR
Kd ([20]; source organism: Influenza A virus (A/Waikato/7/2000(H3N2))): ≥ 20 µM | Kd ([2]; source organism: Influenza A virus (A/SW/MN/3128/00(H1N2))): ≥ 20 µM

VMLDWGIEL
Kd [21, 47]: 0.297 µM | Kd [1, 47]: 0.599 µM | Kd [2, 47]: ≥ 20 µM | Kd [5, 47]: 3.03 µM | Kd [7, 47]: 0.267 µM | Kd [8, 47]: ≥ 20 µM | Kd [9, 47]: ≥ 20 µM | Kd [11, 47]: 11.3 µM | Kd [22, 47]: ≥ 20 µM | Kd [12, 47]: ≥ 20 µM | Kd [14, 47]: ≥ 20 µM | Kd [35]: ≥ 20 µM | Kd [16, 47]: ≥ 20 µM | Kd [17, 47]: 0.00619 µM | Kd [23, 47]: ≥ 20 µM

YQFTGIKKY
Kd ([36]; source organism: Homo sapiens): ≤ 0.001 µM

YYFQSGNEI
Kd ([36]; source organism: human gammaherpesvirus 4): ≥ 20 µM
